This is an account of results in patent US10941182 (Amgen, dated 2021).

Starred links: 1 amine or outer side, 2 acyl side, 3 side chain; linkers in the order of their positions; H or OH if unused. Non-standard residues stand in square brackets, D forms with d. *: point of attachment. Oic = O=C(O)[C@@H]1C[C@@H]2CCCC[C@@H]2N1; Phe(4-Cl) = N[C@@H](Cc1ccc(Cl)cc1)C(=O)O; γGlu = O=C(O)[C@H](CCC(=O)[*:2])N[*:1]; Tridecanoyl = CCCCCCCCCCCCC(=O)*; hArg = N=C(N)NCCCC[C@H](N)C(=O)O; Cha = N[C@@H](CC1CCCCC1)C(=O)O; Nle = CCCC[C@H](N)C(=O)O; AEEA = NCCOCCOCC(=O)O

T1: rat APJ receptor (rat, UniProt Q9JHG3 1-377)
T1 sequence (looked up): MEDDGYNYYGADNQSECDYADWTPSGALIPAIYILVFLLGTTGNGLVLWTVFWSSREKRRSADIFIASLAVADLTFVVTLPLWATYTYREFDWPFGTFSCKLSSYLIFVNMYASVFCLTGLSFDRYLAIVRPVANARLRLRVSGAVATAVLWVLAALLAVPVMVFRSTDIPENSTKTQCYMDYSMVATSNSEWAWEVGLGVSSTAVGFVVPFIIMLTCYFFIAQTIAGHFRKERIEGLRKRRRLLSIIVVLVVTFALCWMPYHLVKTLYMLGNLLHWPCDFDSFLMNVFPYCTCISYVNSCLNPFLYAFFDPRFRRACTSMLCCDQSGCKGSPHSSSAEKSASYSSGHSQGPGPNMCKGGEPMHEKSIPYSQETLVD

T2: human APJ receptor (human, UniProt P35414 1-380)
T2 sequence (looked up): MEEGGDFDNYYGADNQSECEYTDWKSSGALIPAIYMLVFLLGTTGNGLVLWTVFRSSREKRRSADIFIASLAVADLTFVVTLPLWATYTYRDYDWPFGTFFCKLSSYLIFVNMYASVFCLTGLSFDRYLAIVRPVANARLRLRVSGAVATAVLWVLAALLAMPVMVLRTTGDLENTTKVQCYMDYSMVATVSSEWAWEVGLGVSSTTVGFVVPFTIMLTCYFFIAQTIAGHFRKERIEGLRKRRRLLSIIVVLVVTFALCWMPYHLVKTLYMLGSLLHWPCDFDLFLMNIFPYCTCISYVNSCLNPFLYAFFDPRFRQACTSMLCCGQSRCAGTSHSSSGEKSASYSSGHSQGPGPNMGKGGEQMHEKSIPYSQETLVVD

B1: Apelin polypeptide SEQ ID NO: 465 (peptide)
peptide: Tridecanoyl-[γGlu][AEEA][AEEA]QRPQLSHKGP[Nle]P[Phe(4-Cl)]-OH
SMILES: CCCCCCCCCCCCC(=O)N[C@@H](CCC(=O)NCCOCCOCC(=O)NCCOCCOCC(=O)N[C@@H](CCC(N)=O)C(=O)N[C@@H](CCCNC(=N)N)C(=O)N1CCC[C@H]1C(=O)N[C@@H](CCC(N)=O)C(=O)N[C@@H](CC(C)C)C(=O)N[C@@H](CO)C(=O)N[C@@H](Cc1c[nH]cn1)C(=O)N[C@@H](CCCCN)C(=O)NCC(=O)N1CCC[C@H]1C(=O)N[C@@H](CCCC)C(=O)N1CCC[C@H]1C(=O)N[C@@H](Cc1ccc(Cl)cc1)C(=O)O)C(=O)O
B2: Apelin polypeptide SEQ ID NO: 430 (peptide)
peptide: Tridecanoyl-[γGlu][AEEA][AEEA]Q[dR]P[dR][Cha]SHKG[Oic][Nle]P[Phe(4-Cl)]-OH
SMILES: CCCCCCCCCCCCC(=O)N[C@@H](CCC(=O)NCCOCCOCC(=O)NCCOCCOCC(=O)N[C@@H](CCC(N)=O)C(=O)N[C@H](CCCNC(=N)N)C(=O)N1CCC[C@H]1C(=O)N[C@H](CCCNC(=N)N)C(=O)N[C@@H](CC1CCCCC1)C(=O)N[C@@H](CO)C(=O)N[C@@H](Cc1c[nH]cn1)C(=O)N[C@@H](CCCCN)C(=O)NCC(=O)N1[C@H](C(=O)N[C@@H](CCCC)C(=O)N2CCC[C@H]2C(=O)N[C@@H](Cc2ccc(Cl)cc2)C(=O)O)C[C@@H]2CCCC[C@@H]21)C(=O)O
B3: Apelin polypeptide SEQ ID NO: 427 (peptide)
peptide: Tridecanoyl-[γGlu][AEEA][AEEA]QRPPLSHKGP[Nle]P[Phe(4-Cl)]-OH
SMILES: CCCCCCCCCCCCC(=O)N[C@@H](CCC(=O)NCCOCCOCC(=O)NCCOCCOCC(=O)N[C@@H](CCC(N)=O)C(=O)N[C@@H](CCCNC(=N)N)C(=O)N1CCC[C@H]1C(=O)N1CCC[C@H]1C(=O)N[C@@H](CC(C)C)C(=O)N[C@@H](CO)C(=O)N[C@@H](Cc1c[nH]cn1)C(=O)N[C@@H](CCCCN)C(=O)NCC(=O)N1CCC[C@H]1C(=O)N[C@@H](CCCC)C(=O)N1CCC[C@H]1C(=O)N[C@@H](Cc1ccc(Cl)cc1)C(=O)O)C(=O)O
B4: Apelin polypeptide SEQ ID NO: 477 (peptide)
peptide: Tridecanoyl-[γGlu][AEEA][AEEA]QRPELSHKGP[Nle]P[Phe(4-Cl)]-OH
SMILES: CCCCCCCCCCCCC(=O)N[C@@H](CCC(=O)NCCOCCOCC(=O)NCCOCCOCC(=O)N[C@@H](CCC(N)=O)C(=O)N[C@@H](CCCNC(=N)N)C(=O)N1CCC[C@H]1C(=O)N[C@@H](CCC(=O)O)C(=O)N[C@@H](CC(C)C)C(=O)N[C@@H](CO)C(=O)N[C@@H](Cc1c[nH]cn1)C(=O)N[C@@H](CCCCN)C(=O)NCC(=O)N1CCC[C@H]1C(=O)N[C@@H](CCCC)C(=O)N1CCC[C@H]1C(=O)N[C@@H](Cc1ccc(Cl)cc1)C(=O)O)C(=O)O
B5: Apelin polypeptide SEQ ID NO: 480 (peptide)
peptide: Tridecanoyl-[γGlu][AEEA][AEEA][dR]Q[hArg]P[hArg][Cha]SHKG[Oic][Nle]P[Phe(4-Cl)]-OH
SMILES: CCCCCCCCCCCCC(=O)N[C@@H](CCC(=O)NCCOCCOCC(=O)NCCOCCOCC(=O)N[C@H](CCCNC(=N)N)C(=O)N[C@@H](CCC(N)=O)C(=O)N[C@@H](CCCCNC(=N)N)C(=O)N1CCC[C@H]1C(=O)N[C@@H](CCCCNC(=N)N)C(=O)N[C@@H](CC1CCCCC1)C(=O)N[C@@H](CO)C(=O)N[C@@H](Cc1c[nH]cn1)C(=O)N[C@@H](CCCCN)C(=O)NCC(=O)N1[C@H](C(=O)N[C@@H](CCCC)C(=O)N2CCC[C@H]2C(=O)N[C@@H](Cc2ccc(Cl)cc2)C(=O)O)C[C@@H]2CCCC[C@@H]21)C(=O)O

The first assay has as its target T1, rat APJ receptor. Briefly: cell-based or functional assay.
As to B1, the “EC50 Rat APJ Receptor (GTPγS assay)” value worked out at 0.175 nM.

B2: the “EC50 Rat APJ Receptor (GTPγS assay)” value was 2.83 nM.

B3: the “EC50 Rat APJ Receptor (GTPγS assay)” value stood at 0.313 nM.

Regarding B4, the “EC50 Rat APJ Receptor (GTPγS assay)” value stood at 0.691 nM.

In the case of B5, the “EC50 Rat APJ Receptor (GTPγS assay)” value was determined as 0.271 nM.

Another assay deals with T2, human APJ receptor. Kind of assay: cell-based or functional assay.
For B1, the “EC50 Human APJ Receptor (GTPγS assay)” value is 0.0692 nM.

Turning to B2, the “EC50 Human APJ Receptor (GTPγS assay)” value is 1.22 nM.

With B3, the “EC50 Human APJ Receptor (GTPγS assay)” value turned out to be 0.17 nM.

Turning to B4, the “EC50 Human APJ Receptor (GTPγS assay)” value was 0.423 nM.

Turning to B5, the “EC50 Human APJ Receptor (GTPγS assay)” value came to 0.0998 nM.
